Reference: patent US20020115167A1 (published 2002)

Columns and labels:
[1] = target: T1, Dishevelled (Dsh) protein, Drosophila (Drosophila, UniProt P51140 1-623, progressively phosphorylated during development (sites not given)); assay: immunoprecipitation of Dsh from Drosophila embryos, in vitro kinase assay; the kinase was eluted with 700 mM NaCl
T1 construct: also called endogenous Dsh
T1 sequence (looked up): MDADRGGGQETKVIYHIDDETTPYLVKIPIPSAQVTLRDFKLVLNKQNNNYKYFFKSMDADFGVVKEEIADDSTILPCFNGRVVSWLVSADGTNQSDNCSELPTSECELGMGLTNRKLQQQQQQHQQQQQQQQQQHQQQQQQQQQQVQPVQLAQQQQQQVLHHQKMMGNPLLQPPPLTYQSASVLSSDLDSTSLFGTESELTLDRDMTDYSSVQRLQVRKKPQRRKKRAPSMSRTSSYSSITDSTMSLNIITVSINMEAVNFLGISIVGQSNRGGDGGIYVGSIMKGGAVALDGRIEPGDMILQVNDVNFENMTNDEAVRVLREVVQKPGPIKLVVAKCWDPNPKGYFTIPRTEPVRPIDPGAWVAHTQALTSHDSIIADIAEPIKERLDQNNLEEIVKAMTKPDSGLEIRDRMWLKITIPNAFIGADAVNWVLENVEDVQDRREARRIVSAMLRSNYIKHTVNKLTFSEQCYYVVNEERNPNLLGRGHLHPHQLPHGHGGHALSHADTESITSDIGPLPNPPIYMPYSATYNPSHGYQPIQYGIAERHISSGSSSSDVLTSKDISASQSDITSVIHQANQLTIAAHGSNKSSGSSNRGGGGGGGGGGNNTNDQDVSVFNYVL
Experimental: To clone the Dsh-associated kinase, Dsh was immunoprecipitated from Drosophila embryos with preimmune and affinity-purified immune serum, and subjected to an in vitro kinase assay or blotted with anti-Dsh serum. Dsh immunoprecipitates were washed with 700 mM NaCl to elute the associated kinase. The eluted kinase was recovered after dilution by precipitation with GST-fusion proteins. The kinase was purified 60,000-fold from Drosophila embryos and several peptide sequences were then used to clone the cDNA of this kinase. After screening a Drosophila embryo cDNA library with oligo probes designed based on peptide sequences, the cDNA that encodes the kinase was cloned. The cDNA clones encode a protein kinase that is homologous to the C. elegans protein PAR-1 (85% identity in the kinase domain and 42% identity overall). […] Importantly, the kinase activity that was precipitated using GST-DM increased as Dsh became progressively phosphorylated during development. The kinase activity was also present in Dsh immunoprecipitates.
(§1) To perform the kinase assay, the embryos or cells were lysed in lysis buffer (50 mM HEPES [pH 7.6], 100 mM NaCl, 0.5% Nonidet P-40, 10 mM NaF, 5 mM NaPPi, 1.5 mM MgCl₂, 1 mM EGTA, 10% glycerol, and protease inhibitors). Cleared cell lysates were incubated with GST fusion proteins immobilized on glutathione agarose beads for two to four hours at 4° C. […]

[2] = target: T2, GST-fusion protein containing the N-terminal domain of Dsh (Drosophila, UniProt P51140 1-166); assay: GST-fusion pull-down from Drosophila embryo lysates, in vitro kinase assay
T2 construct: domain: N-terminal; not shown: glutathione-S-transferase (GST) fusion partner
T2 sequence (looked up): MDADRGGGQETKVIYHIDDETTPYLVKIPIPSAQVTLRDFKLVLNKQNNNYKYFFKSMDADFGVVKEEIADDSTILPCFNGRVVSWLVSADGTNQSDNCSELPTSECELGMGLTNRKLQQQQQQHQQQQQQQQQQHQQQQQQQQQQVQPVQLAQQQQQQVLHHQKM
Experimental: (§2) Dsh is known to be progressively phosphorylated in Drosophila during the stages of embryonic development known to require Wnt. The stoichiometry of this phosphorylation is high and supports the importance of this reaction. To identify the kinase that phosphorylates Dsh, various regions of Dsh were tested for their ability to physically interact with this kinase. Equal amounts of lysates prepared from staged Drosophila embryos were blotted with anti-Dsh antibody. Only the GST-fusion protein containing the middle (DM), but not the N-terminal or C-terminal domain of Dsh, interacted with this kinase activity from Drosophila embryos. The Dsh- associated kinase activity, which was precipitated with GST-DM, increased as Dsh became progressively phosphoylated during development.
as §1, with “C. The glutathione beads were washed three times with lysis buffer and once with kinase buffer (50 mM Tris [pH7.6], 10 mM MgCl₂).” for “C.”

[3] = target: T3, GST-fusion protein containing the C-terminal domain of Dsh (Drosophila, UniProt P51140 395-623); assay: as above
T3 construct: domain: C-terminal; not shown: glutathione-S-transferase (GST) fusion partner
T3 sequence (looked up): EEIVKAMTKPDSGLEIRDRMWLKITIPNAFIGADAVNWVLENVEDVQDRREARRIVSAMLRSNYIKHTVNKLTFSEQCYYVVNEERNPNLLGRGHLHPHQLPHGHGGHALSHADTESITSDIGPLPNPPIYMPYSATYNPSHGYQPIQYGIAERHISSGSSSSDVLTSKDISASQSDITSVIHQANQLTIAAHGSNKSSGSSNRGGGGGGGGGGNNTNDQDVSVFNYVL
Experimental: as §2
as §1, with “C. The glutathione beads were washed three times with lysis buffer and once with kinase buffer (50 mM Tris [pH7.6], 10 mM MgCl₂).” for “C.”

- binding result [1]: binds
- binding result [2]: no binding
- binding result [3]: no binding
B1: Drosophila PAR-1 (dPAR-1), the Dishevelled-associated kinase (enzyme)
chain: MSTAMRTTLQSVPEALPADSVSNGTASNVAAPAAPVSSATNAVPPLAAVSSTTATYATNSISTSSHSVKDQQQQQQQQQHDSANANIVSLPPTTTPVANTNTMMPIVTSSNSATSNSTAATPTPASGAAATGGVGSVSQGPATVSASAANTNHSHQHSHQHHHHVANNMTTDGARLSSNNSAVVASSAINHHHHHTPGSGVAPTVNKNVLSTHSAHPSAIKQRTSSAKGSPNMQMRSSAPMRWRATEEHIGKYKLIKTIGKGNFAKVKLAKHLPTGKEVAIKIIDKTQLNPGSLQKLFREVRIMKMLDHPNIVKLFQVIETEKTLYLIMEYASGGEVFDYLVLHGRMKEKEARVKFRQIVSAVQYCHQKRIIHRDLKAENLLLDSELNIKIADFGFSNEFTPGSKLDTFCGSPPYAAPELFQGKKYDGPEVDVWSLGVILYTLVSGSLPFDGSTLRELRERVLRGKYRIPFYMSTDCENLLRKFLVLNPAKRASLETIMGDKWMNMGFEEDELKPYIEPKADLADPKRIEALVAMGYNRSEIEASLSQVRYDDVFATYLLLGRKSTDPESDGSRSGSSLSLRNISGNDAGANAGSASVQSPTHRGVHRSISASSTKPSRRASSGAETLRVGPTNAAATVAAATGAVGAVNPSNNYNAAGSAADRASVGSNFKRQNTIDSATIKENTARLAAQNQRPASATQKMLTTADTTLNSPAKPRTATKYDPTNGNRTVSGTSGIIPRRSTTLYEKTSSTEKTNVIPAETKMASAVKSSRHFPRNVPSRSTFHSGQTRARNNTALEYSGTSGASGDSSHPGRMSFFSKLSSRFSKRPNQ
notes: Endogenous kinase from Drosophila embryo or Clone-8 cell lysates; In-gel bands of 110 kDa, 64 kDa and 130 kDa (minor) are said to be the kinase and its major fragment; also called Dsh-associated kinase; the kinase
